According to publication PMC8996214, “Aptamer blocking S-TLR4 interaction selectively inhibits SARS-CoV-2 induced inflammation”:

B1: ST-6 (structured_DNA)
DNA: AGCAGCACAGAGGTCAGATGAGGGCATCAAAGGGGGGAGGGCGGGTGGATTGGATGCCGACCTATGCGTGCTACCGTGAA

molecular target: SARS-CoV-2 spike trimer (SARS-CoV-2, UniProt P0DTC2); assay: BLI; conditions: protein: commercial; tags: His

| Binder | binding result |
| --- | --- |
| GGGGAGGGCGGGTGGATTGGATGCCGA (structured_DNA) [ST-6-2] | binds |
| B1 | binds |
| AGGGCATCAAAGGGGGGAGGGCGGGTGGATTGGATGCCGA (structured_DNA) [ST-6-1] | binds |

molecular target: ACE2 (UniProt Q9BYF1 18-740); assay: ELISA; conditions: protein: commercial
Sequence (Q9BYF1 18-740): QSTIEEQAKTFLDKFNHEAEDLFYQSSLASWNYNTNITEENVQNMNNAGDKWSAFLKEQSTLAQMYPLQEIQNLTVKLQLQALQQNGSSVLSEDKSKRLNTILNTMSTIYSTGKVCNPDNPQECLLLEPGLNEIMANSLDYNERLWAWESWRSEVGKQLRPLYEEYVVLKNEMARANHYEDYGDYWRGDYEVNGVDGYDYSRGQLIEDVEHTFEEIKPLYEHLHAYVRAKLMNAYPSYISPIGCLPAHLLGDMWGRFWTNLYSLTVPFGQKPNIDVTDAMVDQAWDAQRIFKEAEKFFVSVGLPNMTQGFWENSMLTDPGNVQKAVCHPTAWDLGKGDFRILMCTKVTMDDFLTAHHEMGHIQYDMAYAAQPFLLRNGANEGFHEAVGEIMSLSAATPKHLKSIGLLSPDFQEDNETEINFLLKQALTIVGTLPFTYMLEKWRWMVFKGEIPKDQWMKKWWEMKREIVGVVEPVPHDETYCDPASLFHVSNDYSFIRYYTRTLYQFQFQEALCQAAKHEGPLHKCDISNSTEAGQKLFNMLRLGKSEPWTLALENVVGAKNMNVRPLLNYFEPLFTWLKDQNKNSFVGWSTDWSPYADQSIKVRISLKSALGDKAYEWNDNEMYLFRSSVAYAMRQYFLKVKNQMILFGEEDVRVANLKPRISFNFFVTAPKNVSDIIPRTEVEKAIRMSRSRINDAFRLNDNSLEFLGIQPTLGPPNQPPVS

| Binder | binding result |
| --- | --- |
| GGGGAGGGCGGGTGGATTGGATGCCGA (structured_DNA) [ST-6-2] | no binding |
| B1 | no binding |
| AGGGCATCAAAGGGGGGAGGGCGGGTGGATTGGATGCCGA (structured_DNA) [ST-6-1] | no binding |

molecular target: PDGF-AA (UniProt P04085 87-211); assay: ELISA; conditions: protein: commercial; chain copies: 2

| Binder | binding result |
| --- | --- |
| GGGGAGGGCGGGTGGATTGGATGCCGA (structured_DNA) [ST-6-2] | no binding |
| B1 | no binding |
| AGGGCATCAAAGGGGGGAGGGCGGGTGGATTGGATGCCGA (structured_DNA) [ST-6-1] | no binding |

molecular target: SARS-CoV-2 spike RBD (SARS-CoV-2, UniProt P0DTC2 319-541); assay: ELISA; conditions: not given

| Binder | binding result |
| --- | --- |
| GGGGAGGGCGGGTGGATTGGATGCCGA (structured_DNA) [ST-6-2] | no binding |
| B1 | no binding |
| AGGGCATCAAAGGGGGGAGGGCGGGTGGATTGGATGCCGA (structured_DNA) [ST-6-1] | no binding |

molecular target: MERS-CoV spike protein (MERS-CoV, UniProt K9N5Q8 18-1296); assay: ELISA; conditions: protein: commercial; chain copies: 3; label: 5'-biotin (BLI, ELISA); Cy3 (flow cytometry); FAM (imaging); G-quadruplex
Sequence (K9N5Q8 18-1296): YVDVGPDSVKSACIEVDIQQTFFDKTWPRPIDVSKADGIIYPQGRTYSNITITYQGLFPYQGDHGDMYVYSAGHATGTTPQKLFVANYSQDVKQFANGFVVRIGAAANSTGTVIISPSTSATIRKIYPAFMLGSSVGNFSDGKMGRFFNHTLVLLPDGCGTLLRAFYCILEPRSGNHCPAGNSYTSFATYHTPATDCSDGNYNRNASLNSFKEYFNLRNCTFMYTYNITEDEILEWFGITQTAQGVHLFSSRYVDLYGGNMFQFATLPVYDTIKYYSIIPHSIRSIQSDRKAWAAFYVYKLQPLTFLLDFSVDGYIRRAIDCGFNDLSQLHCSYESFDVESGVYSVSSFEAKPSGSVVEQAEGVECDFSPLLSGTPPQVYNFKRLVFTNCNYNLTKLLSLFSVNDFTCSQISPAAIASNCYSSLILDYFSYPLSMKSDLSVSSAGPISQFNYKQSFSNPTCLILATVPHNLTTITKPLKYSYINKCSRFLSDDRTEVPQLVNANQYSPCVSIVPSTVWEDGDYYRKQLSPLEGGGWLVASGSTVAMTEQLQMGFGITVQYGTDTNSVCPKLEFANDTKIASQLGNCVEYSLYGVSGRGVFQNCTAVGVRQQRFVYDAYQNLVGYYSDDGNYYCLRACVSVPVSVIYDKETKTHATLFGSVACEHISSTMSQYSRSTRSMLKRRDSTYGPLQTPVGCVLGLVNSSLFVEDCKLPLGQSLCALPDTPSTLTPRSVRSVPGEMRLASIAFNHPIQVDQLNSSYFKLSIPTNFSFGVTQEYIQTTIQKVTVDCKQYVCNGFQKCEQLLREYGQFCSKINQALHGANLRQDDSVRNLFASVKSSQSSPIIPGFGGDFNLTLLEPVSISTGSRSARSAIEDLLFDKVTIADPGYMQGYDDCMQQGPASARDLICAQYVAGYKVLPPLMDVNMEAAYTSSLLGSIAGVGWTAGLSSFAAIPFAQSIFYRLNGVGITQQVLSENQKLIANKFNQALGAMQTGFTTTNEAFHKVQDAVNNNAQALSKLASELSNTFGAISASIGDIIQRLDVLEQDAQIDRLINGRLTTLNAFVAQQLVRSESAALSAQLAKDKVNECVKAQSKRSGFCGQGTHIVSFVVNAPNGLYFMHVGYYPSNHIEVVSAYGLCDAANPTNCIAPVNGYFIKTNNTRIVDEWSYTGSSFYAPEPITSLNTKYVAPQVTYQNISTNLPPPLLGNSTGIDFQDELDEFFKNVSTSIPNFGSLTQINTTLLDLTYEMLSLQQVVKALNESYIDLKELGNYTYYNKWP

| Binder | binding result |
| --- | --- |
| GGGGAGGGCGGGTGGATTGGATGCCGA (structured_DNA) [ST-6-2] | no binding |
| B1 | no binding |
| AGGGCATCAAAGGGGGGAGGGCGGGTGGATTGGATGCCGA (structured_DNA) [ST-6-1] | no binding |

molecular target: TLR4 (UniProt O00206 24-631); assay: ELISA; conditions: protein: commercial
Sequence (O00206 24-631): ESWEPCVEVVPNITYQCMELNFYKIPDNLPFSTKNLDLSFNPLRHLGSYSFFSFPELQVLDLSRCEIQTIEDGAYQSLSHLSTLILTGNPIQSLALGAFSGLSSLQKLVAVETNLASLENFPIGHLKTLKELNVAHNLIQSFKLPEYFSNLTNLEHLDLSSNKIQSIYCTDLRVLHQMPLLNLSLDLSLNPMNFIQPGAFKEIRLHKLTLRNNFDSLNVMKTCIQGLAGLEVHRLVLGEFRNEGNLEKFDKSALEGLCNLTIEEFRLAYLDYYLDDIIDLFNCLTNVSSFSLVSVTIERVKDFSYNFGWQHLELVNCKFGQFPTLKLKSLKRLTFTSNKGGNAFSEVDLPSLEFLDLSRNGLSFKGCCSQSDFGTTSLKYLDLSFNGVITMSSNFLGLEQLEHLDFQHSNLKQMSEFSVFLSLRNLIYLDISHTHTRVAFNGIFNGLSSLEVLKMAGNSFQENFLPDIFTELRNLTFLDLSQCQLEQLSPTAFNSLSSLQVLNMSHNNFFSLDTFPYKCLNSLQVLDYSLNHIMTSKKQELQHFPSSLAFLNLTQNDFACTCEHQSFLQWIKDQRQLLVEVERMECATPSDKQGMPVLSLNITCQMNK

| Binder | binding result |
| --- | --- |
| GGGGAGGGCGGGTGGATTGGATGCCGA (structured_DNA) [ST-6-2] | no binding |
| B1 | no binding |
| AGGGCATCAAAGGGGGGAGGGCGGGTGGATTGGATGCCGA (structured_DNA) [ST-6-1] | no binding |

molecular target: HCoV-HKU1 spike protein (HCoV-HKU1, UniProt Q5MQD0); assay: ELISA; conditions: protein: commercial
Sequence (Q5MQD0 13-1300): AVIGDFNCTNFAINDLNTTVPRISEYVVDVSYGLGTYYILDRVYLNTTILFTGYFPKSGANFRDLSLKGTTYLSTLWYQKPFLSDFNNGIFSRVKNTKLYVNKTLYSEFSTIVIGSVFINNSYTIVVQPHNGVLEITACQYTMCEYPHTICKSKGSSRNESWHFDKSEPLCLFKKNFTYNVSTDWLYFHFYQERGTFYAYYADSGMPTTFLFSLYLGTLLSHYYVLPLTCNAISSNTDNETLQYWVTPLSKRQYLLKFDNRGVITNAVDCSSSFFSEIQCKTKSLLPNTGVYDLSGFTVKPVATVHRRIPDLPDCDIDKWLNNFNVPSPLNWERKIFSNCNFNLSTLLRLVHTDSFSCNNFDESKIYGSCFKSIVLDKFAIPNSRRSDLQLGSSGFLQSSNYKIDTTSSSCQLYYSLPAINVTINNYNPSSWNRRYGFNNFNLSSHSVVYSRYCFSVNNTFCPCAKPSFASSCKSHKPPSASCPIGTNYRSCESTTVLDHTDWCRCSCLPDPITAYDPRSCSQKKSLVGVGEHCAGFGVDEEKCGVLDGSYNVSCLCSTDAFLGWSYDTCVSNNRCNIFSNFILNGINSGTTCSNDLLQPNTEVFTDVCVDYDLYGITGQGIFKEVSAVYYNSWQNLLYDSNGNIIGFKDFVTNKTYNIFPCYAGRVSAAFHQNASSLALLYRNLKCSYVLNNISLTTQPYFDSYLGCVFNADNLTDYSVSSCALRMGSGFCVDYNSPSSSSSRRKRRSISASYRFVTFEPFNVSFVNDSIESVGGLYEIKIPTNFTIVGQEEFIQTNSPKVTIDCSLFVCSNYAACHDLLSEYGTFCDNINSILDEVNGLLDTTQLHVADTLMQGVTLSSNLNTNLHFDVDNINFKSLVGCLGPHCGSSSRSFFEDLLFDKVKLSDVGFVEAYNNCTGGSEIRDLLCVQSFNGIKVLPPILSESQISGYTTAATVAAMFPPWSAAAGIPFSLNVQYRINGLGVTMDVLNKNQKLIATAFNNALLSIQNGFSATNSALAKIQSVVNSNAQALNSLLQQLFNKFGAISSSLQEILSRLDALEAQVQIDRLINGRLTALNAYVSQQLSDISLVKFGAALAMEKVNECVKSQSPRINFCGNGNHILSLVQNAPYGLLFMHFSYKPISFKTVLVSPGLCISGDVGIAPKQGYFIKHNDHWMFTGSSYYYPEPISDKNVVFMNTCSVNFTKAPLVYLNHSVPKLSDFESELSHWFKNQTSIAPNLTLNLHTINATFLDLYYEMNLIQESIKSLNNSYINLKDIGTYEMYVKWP

| Binder | binding result |
| --- | --- |
| GGGGAGGGCGGGTGGATTGGATGCCGA (structured_DNA) [ST-6-2] | no binding |
| B1 | no binding |
| AGGGCATCAAAGGGGGGAGGGCGGGTGGATTGGATGCCGA (structured_DNA) [ST-6-1] | no binding |

molecular target: SARS-CoV spike protein (SARS-CoV, UniProt P59594 14-1195); assay: ELISA; conditions: protein: commercial; chain copies: 3; label: 5'-biotin (BLI, ELISA); Cy3 (flow cytometry); FAM (imaging); G-quadruplex

| Binder | binding result |
| --- | --- |
| GGGGAGGGCGGGTGGATTGGATGCCGA (structured_DNA) [ST-6-2] | no binding |
| B1 | no binding |
| AGGGCATCAAAGGGGGGAGGGCGGGTGGATTGGATGCCGA (structured_DNA) [ST-6-1] | no binding |
